Results from US20060107351A1 (FLORIGENE, published 2006).

Biological target: the molecule itself
Assay: self-association; SDS-PAGE under reducing (Mr 26,900) versus non-reducing (Mr 114,000) conditions

B1: Rtms-5 colored protein tagged with hexahistidine at its C-terminus (other)
chain: SVIATQMTYKVYMSGTVNGHYFEVEGDGKGKPYEGEQTVKLTVTKGGPLPFAWDILSPQCQYGSIPFTKYPEDIPDYVKQSFPEGFTWERIMNFEDGAVCTVSNDSSIQGNCFTYHVKFSGLNFPPNGPVMQKKTQGWEPHSERLFARGGMLIGNNFMALKLEGGGHYLCEFKTTYKAKKPVKMPGYHYVDRKLDVTNHNKDYTSVEQCEISIARKPVVAHHHHHH
notes: also called RTms-5.pep; Rtms5.pep
  binding result: binds
